Results taken from patent US20260258397A1, “REAGENTS AND SYSTEMS FOR […]” (priority 2023, published 2026).
Numbering of substitutions follows the chain as printed.

Biological target: ΔN-HAB1 (HAB1 Δ1-178), recombinant (Arabidopsis) (UniProt Q9CAJ0)
Experiment: cell-based or functional assay

Sequence of ΔN-HAB1 (HAB1 Δ1-178), recombinant (Arabidopsis) (Q9CAJ0 179-511, stated change not applied): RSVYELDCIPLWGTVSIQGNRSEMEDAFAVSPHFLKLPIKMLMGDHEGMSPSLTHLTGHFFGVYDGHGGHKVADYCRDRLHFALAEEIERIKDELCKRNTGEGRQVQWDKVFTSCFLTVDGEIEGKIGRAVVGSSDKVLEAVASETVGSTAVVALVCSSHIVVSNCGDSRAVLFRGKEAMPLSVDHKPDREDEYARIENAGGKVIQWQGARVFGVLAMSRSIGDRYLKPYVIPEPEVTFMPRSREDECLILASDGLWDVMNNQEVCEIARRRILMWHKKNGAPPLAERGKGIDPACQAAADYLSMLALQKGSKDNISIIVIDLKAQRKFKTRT

B1: 6xHis-PYR1^WIN, recombinant (designed binder, not shown: small tags and cut ends)
chain: MPSELTPEERSELKNSIAEFHTYQLDPGSCSSLHAQRIHAPPELVWSIVRRFDKPQTYQHFIKSCSVEQNFEMRVGCTRDVIVISGLPANTSTERLDILDDERRVTGFSIIGGEHRLTNYKSVTTVHRFEKENRIWTVVLESYVVDMPEGNSEDDTRMAIDTVVKLNLQKLATVAEAMARNSGDGSGSQVT
  EC50 for HAB1 inhibition (in vitro phosphatase activity, fluorogenic substrate; the ligand WIN 55,212-2 is titrated, 50 nM receptor, 25 nM ΔN-HAB1): 72 nM

B2: 6xHis-PYR1^4F, recombinant (designed binder, not shown: small tags and cut ends)
chain: B1 chain with Q59K, H115Q, Y120G, A159V, I160G
  EC50 for HAB1 inhibition (in vitro phosphatase activity, fluorogenic substrate; the ligand 4F-MDMB-BUTINACA is titrated, 25 nM receptor, 25 nM ΔN-HAB1): 102 nM

B3: PYR1^DIAZI, recombinant (designed binder)
chain: B1 chain with E8G, Q59K, V81Y, L87M, F108Y, M158V, A159G, I160V
  EC50 of receptor-mediated inhibition of HAB1 phosphatase activity in vitro (ligand diazinon titrated): 36 nM

B4: PYR1^PIRI, recombinant (designed binder)
chain: B1 chain with Q59R, S92M, N119S, S122Q, E130G, A159T, I160T, V174A
  EC50 of receptor-mediated inhibition of HAB1 phosphatase activity in vitro (ligand pirimiphos-methyl titrated): 58 nM
